Laboratory results taken from the RNAGym collection of RNA variant scans (doi:10.1073/pnas.2313332121).

B1: TPR t1 (parent)
chain: GACCAAUCUGCCCUCAGAGCUCGAGAACAUCUUCGGAUGCAGAGGAGGCAGGCUUCGGUGGCGCGAUAGCGCCAACGUCCUCAACCUCCAAUGCAUCCCACCACAUGAUGAUGCCUGAAGAGCCUUGGUUUUUUG

Variants of: B1
Assay: polymerase ribozyme fitness, log enrichment relative to wild type (log ratio); higher = more active; in vitro selection for triplet polymerase activity
Procedure, shortened: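 Genotype fitness is the logarithm of its enrichment divided by wild-type enrichment, using inverse-variance-weighted averages of replicates. That logarithm is base 2. Enrichment was measured by Illumina sequencing of input and output libraries from one triplicate in vitro selection round, with frozen incubation at −7 °C, on PCR-built, transcribed mutant libraries of each subunit of a heterodimeric triplet polymerase ribozyme, retaining genotypes with ≥10 input reads and ≥1 read per output.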

Variant | polymerase ribozyme fitness (log ratio)
C28G G48A A83C A84C | -3.22
C82G U116G | -2.05
C28G G110U C124U | -0.355
C4G C115A | -3.11
U126C U132C | -1.79
G45C C53U U78A U112C | 0.64
U33G G48U G60A C97G G120A | -7.27
C8G C13G A16U C49A C70U U129C | -1.75
A6G C12U G36U G52U C70U U96G A121C | -2.52
G57C G71U G113C | -3.12
A6U C15G G61A | -1.82
G71C A90C | -3.67
C8U A27U | -1.79
G48A G71C G117A | -1.66
A5U A41U G120C | -1.47
C22U A41U C73U C82G A83U C124U | -4.15
A18U C40G C114A | -3.02
C20A G93A | -3.32
A27U G60U | -3.37
C11U C12G C28U U32C C49A C56G | -2.91
A18U G48U G52U G69U C79G | -2.76

Variant | polymerase ribozyme fitness (log ratio)
A46U G48A C62U | -2.23
A2U C11A G51A A66G G69U C98U | -4.43
A5U A37U U55A C123A | 0.562
G25C A29G U33C G60A C98U G113C | -7.69
C53G C114U G127C | -2.8
A90C C104U | -0.65
C94A G127C | -2.37
G45U U59A C101U | -0.987
U55C U125A | -1.11
A6C C8A U87A | 0.391
U78A U112A | 1.06
A5C A37U G69A C123A G128A | -4.31
C72A A121U | 2.22
A29G C56G | -1.53
G120A U130A | 0.684
C62U G93C A105U | -3.5
G51U G71C U78C C114A | -7.09
U87A A118G | 0.111
C13A A46C G69C C124G | -1.36
A18U C70A G113A G122A | -4.58
A2C C56G | -1.9

Variant | polymerase ribozyme fitness (log ratio)
G44C C85U U92A C124U U133C | -1.63
U92G A121G | -0.555
C22A C31G A50C C70G A111C | -7.1
A5U U38A G42U C72U A74U C85A C101A | -5.64
C82U G113U | -2.32
A18U G44U C88G C89A | -2.55
C73A C123U | 1.47
A6C C11U G61U G113U | -4.99
C28U C49G U129A | -5.15
C11A C64A A108U G110A | -6.85
C34U U78A | -4.78
G19U G61C | -4.85
G61A A103U | -4.95
C12A G63C A111U | -4.83
C8U C13A G25U G39A G47U G63C G117C G120C | -7.2
A29G A50G C99G A105G C124A | -7.1
G69U C70U C80U G113C A119G | -3.06
U54G A95G U130A | -1.11
A16U A37G G113A | -4.83
G57U A119U G120U | -0.267
U7C C49A G61U A83C U129C | -0.315

Variant | polymerase ribozyme fitness (log ratio)
C53U C85G | -2.01
G71U C101G U106G | -3.61
C53U G63U A90C C104A A121G C123A | -4.29
C13U G69U C94U | 0.248
C70G C72U C123A U129G U133G | -2.93
A50C C89U | -1.06
C22U A46C C70U | -6.66
A29U G120U | -0.652
C13U U81A | -0.11
C82U A100C C123U | -0.0044
C89U U126C | -1.11
C11U G35U G39U C56A G71U G122A | -6.34
A24G A111G G122U | -5
U129G U132A | -3.7
C22U G117A | -4.58
C12G A27C C104U G113U G120A G122A U130A | -6.9
G71C A74G A91C G93C C99G A105U A111G | -6.99
U7C G69C A90G G113C | -3.11
C20U A43G G63A | -4.59
A50U C123G U131G | 0.128
